For one experiment, the system named is Jak1 phosphorylation. Nature of the experiment: IP/WB of Jak1 phosphorylation in healthy keratinocytes (IL-22). Format: cell-based, human. The following applies: IL-22 10 min, no peptide, n = 3. On the procedure:
Figure 5 KIR-ESS peptide inhibits IL-22-induced phosphorylation of STAT3 and Erk in healthy and SCC-derived keratinocytes (A) Protein extracts obtained from healthy keratinocytes (n = 3) pre-treated or not with 15 μM (left panel) or 75 μM (right panel), KIR, KIR-ESS and control (Ctrl1 or Ctrl2) peptides, and, then, stimulated or not with IL-22 for 20 min, were subjected to WB analysis to detect STAT3 (Tyr705), Erk and MEK phosphorylation. Filters were probed with anti-STAT3, -Erk and –MEK Abs (top). (B) Protein extracts obtained from healthy keratinocytes (n = 3) pre-treated or not with 75 μM KIR-ESS and control (Ctrl1) peptides, and, then, stimulated or not with IL-22 for 10 min, were subjected to immunoprecipitation for IL-22R1 and Jak1, and then analysed by WB to detect phosphorylated and unphosphorylated forms of the proteins. (C) Unphosphorylated and phosphorylated forms of STAT1 (Tyr701) and STAT3 (Tyr705) were monitored in keratinocytes treated with IFN-γ for 15 min by WB analysis (bottom). In all experimental groups, filters were stripped and re-probed with β-actin Ab. (D) Protein extracts were obtained from CAL27 (left panel) or CAL33 (right panel) lines treated or not with 75 μM peptides in presence of IL-22 or IFN-γ. WB was performed to detect basal and phosphorylated STAT1, STAT3 and Erk. […]

In the next experiment the test system is Tyk2 phosphorylation. Nature of the experiment: Tyk2 phosphorylation in healthy keratinocytes (IL-22). The class given is cell-based, human. The following applies: IL-22 10 min, no peptide, n = 3. Here is the method:
2nd- or 3rd-passage cultures of human keratinocyte strains (n = 5), obtained as previously described, were grown in serum-free Keratinocyte Growth Medium (KGM; Clonetics, Walkersville, MD, USA), for 3–5 days (at 60–80% confluence) before performing experiments. The HaCaT human keratinocyte cell line was a gift from N.E. Fusenig (Deutsches Krebsforschungszentrum, Heidelberg, Germany), and was grown in Dulbecco modified Eagle medium (DMEM; Biochrom, Cambridge, UK) supplemented with 10% Fetalclone II serum (HyClone Laboratories, South Logan, UT, USA). SCC-derived cell lines, CAL27-and CAL33 (American Tissue Culture Collection, ATCC, Milan, Italy), SCC12, SCC13 and SCC-15 (kindly provided by Dr. A. Marconi, University of Modena e Reggio Emilia, Italy), as well as M77015-08 and TE354.T (ATCC) were grown in DMEM (Biocrhom AG, Cambridge, UK) with 10% fetal bovine serum (HyClone Laboratories). Primary cultures of healthy keratinocytes and skin tumor cell lines were treated with peptides (KIR, KIR-ESS, Ctrl1 and Ctrl2) resuspended in 1X PBS for 1 h and, then, stimulated with 50 ng/ml IL-22 or 200 U/ml IFN-γ (R&D Systems, Minneapolis, MN, USA) in keratinocyte basal medium (KBM, Clonetics) or DMEM, respectively.
Total protein extracts were prepared as previously reported. Immunoprecipitation and immunoblotting were performed accordingly to standard procedures. […]

Experiment [1] relates to STAT3 phosphorylation in BCC and SCC lines. As to the kind of experiment: phospho-STAT3 levels in transformed keratinocyte lines (IL-22). The class given is cell-based. As to conditions: BCC (n = 2) and SCC (n = 5) lines vs healthy strains (n = 5), IL-22 time course. Here is the method: Figure 4 SOCS3 and SOCS1 are poorly expressed in the epidermis of NMSC lesions and are not induced in transformed keratinocytes by IL-22 (A) Immunohistochemistry for SOCS3 and SOCS1 (red staining) was performed respectively on frozen or paraffin-embedded sections from biopsies of healthy skin (i), NLS (ii, iii) and LS (iv, v) areas of BCC and SCC, specimens. Psoriatic skin biopsies were also analyzed (vi). Sections were counterstained with Mayer's H&E and were visually evaluated by an pathologist experienced in dermatology. One out of four representative staining is shown. Scale bars, […]. (B) Graphs show SOCS3 and SOCS1 mRNA levels which were detected by real-time PCR analysis in cultured SCC (CAL27 and CAL33) and BCC (M77015) skin tumor lines left untreated or stimulated with IL-22 or IFN-γ for 3 h and normalized for β-actin mRNA expression levels. All data were obtained from three independent experiments. […] SOCS1 was detected by IP using a specific anti-SOCS1 Ab, whereas SOCS3 by WB with an anti-SOCS3 Ab. […] Densitometric intensity (D.I.) of SOCS1 or SOCS3/β-actin was calculated from three independent experiments and numerically expressed as D. I. Ratio. *p < 0.01; **p < 0.05. […] SOCS3 and phospho-Tyr STAT3 levels were detected by WB and normalized to β-actin levels. […]

The text below walks through data of paper PMC5421877, “SOCS3 inhibits the pathological effects of IL-22 in non-melanoma skin tumor-derived keratinocytes” (Oncotarget, 2017).

B1: IL-22: cytokine stimulus, R&D Systems (protein, UniProt Q9GZX6 34-179, looked up)
Interleukin-22: APISSHCRLDKSNFQQPYITNRTFMLAKEASLADNNTDVRLIGEKLFHGVSMSERCYLMKQVLNFTLEEVLFPQSDRFQPYMQEVVPFLARLSNRLSTCHIEGDDLHIQRNVQKLKDTVKKLGESGEIKAIGELDLLFMSLRNACI
B1: the Jak1 phosphorylation induced entry with Jak1 phosphorylation was “induced molecular cascade implicating phosphorylation of IL-22R1, Tyk2 and Jak1”. Also, in the experiment with Tyk2 phosphorylation, the Tyk2 phosphorylation induced entry is “induced molecular cascade implicating phosphorylation of IL-22R1, Tyk2 and Jak1”. Moreover, the phospho-STAT3 levels result in experiment [1] is “higher compared to healthy cells, and showed a long-lasting activation”.
